{
  "source": "IntAct's records for PubMed 25730778",
  "parents": {"B1": {"name": "Protein argonaute (Schizosaccharomyces pombe (strain ATCC 38366 / 972)), O74957 (parent)", "chain": "MSYKPSSEIALRPGYGGLGKQITLKANFFQIISLPNETINQYHVIVGDGSRVPRKQSQLIWNSKEVKQYFGSSWMNSVYDGRSMCWSKGDIADGTIKVNIGSESHPREIEFSIQKSSKINLHTLSQFVNSKYSSDPQVLSSIMFLDLLLKKKPSETLFGFMHSFFTGENGVSLGGGVEAWKGFYQSIRPNQGFMSVNVDISSSAFWRNDSLLQILMEYTDCSNVRDLTRFDLKRLSRKFRFLKVTCQHRNNVGTDLANRVYSIEGFSSKSASDSFFVRRLNGEEQKISVAEYFLENHNVRLQYPNLPCILVKNGAMLPIEFCFVVKGQRYTAKLNSDQTANMIRFAVQRPFERVQQIDDFVHQMDWDTDPYLTQYGMKIQKKMLEVPARVLETPSIRYGGDCIERPVSGRWNLRGKRFLDPPRAPIRSWAVMCFTSTRRLPMRGIENFLQTYVQTLTSLGINFVMKKPPVLYADIRGSVEELCITLYKKAEQVGNAPPDYLFFILDKNSPEPYGSIKRVCNTMLGVPSQCAISKHILQSKPQYCANLGMKINVKVGGINCSLIPKSNPLGNVPTLILGGDVYHPGVGATGVSIASIVASVDLNGCKYTAVSRSQPRHQEVIEGMKDIVVYLLQGFRAMTKQQPQRIIYFRDGTSEGQFLSVINDELSQIKEACHSLSPKYNPKILVCTTQKRHHARFFIKNKSDGDRNGNPLPGTIIEKHVTHPYQYDFYLISHPSLQGVSVPVHYTVLHDEIQMPPDQFQTLCYNLCYVYARATSAVSLVPPVYYAHLVSNLARYQDVTADDTFVETSEASMDQEVKPLLALSSKLKTKMWYM", "partner": "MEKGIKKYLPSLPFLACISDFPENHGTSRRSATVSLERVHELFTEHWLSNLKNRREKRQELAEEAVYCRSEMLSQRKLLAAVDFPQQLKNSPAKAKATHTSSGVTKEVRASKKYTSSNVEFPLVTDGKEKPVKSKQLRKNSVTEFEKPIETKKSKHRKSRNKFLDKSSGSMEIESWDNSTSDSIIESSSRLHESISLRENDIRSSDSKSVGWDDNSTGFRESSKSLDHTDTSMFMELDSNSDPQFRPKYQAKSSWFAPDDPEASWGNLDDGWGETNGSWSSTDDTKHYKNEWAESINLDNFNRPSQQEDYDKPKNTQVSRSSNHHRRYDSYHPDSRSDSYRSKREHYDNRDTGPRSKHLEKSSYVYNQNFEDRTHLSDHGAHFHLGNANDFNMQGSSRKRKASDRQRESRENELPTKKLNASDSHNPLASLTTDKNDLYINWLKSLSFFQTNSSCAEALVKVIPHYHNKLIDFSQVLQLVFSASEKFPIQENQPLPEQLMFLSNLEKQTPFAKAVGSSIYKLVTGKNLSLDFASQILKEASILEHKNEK"}},
  "data": [
    {"variants_of": "B1", "conditions": "with tas3_schpo tas3, O94687", "values": [
      {"variant": "F276A;R773E", "effect of a mutation on the interaction": "disrupting interaction strength"},
      {"variant": "R773E", "effect of a mutation on the interaction": "disrupting interaction strength"}
    ]}
  ]
}
